Test results from patent US20210380703A1 (RIGEL PHARMACEUTICALS, published 2021).
Residue numbers refer to the chain shown, from its start.

B1: 374_D05 (antibody, V domains shown)
VH: EVQLLESGGGLVQPGGSLRLSCAASGFTFDSYSMNWVRQAPGKGLEWVSGINYNSGYTGYADSVKGRFTISRDNSKNTLYLQMNSLRAEDTAVYYCARGANWHDTHLDYWGQGTLVTVSS
VL: DIQMTQSPSSLSASVGDRVTITCRASQSILTYLNWYQQKPGKAPKLLIYAATSRASGVPSRFSGSGSGTDFTLTISSLQPEDFATYYCQQSYDTPLTFGGGTKVEIK
B2: 376_B06 (antibody, V domains shown)
VH: B1 VH with D30S, S49A, T58K, G99S, N101T
VL: B1 VL with T94L
B3: 374_C05 (antibody, V domains shown)
VH: B1 VH with S49A, T58K, G59S, G99S, N101T
VL: B1 VL with L30I, T31R, L47V, T94N
B4: 376_F06 (antibody, V domains shown)
VH: B1 VH with D30S, S33G, S55G
VL: B1 VL with L33V, L47V, D93E
B5: 376_A06 (antibody, V domains shown)
VH: B1 VH with G59S, G99S, N101T, H106A
VL: B1 VL with T31S, L47V, A50Y, A51V, T52S, S53N, T94N
B6: 376_H11 (antibody, V domains shown)
VH: B1 VH with G50N, S55G, H106A
VL: B1 VL with L30S, T31R, A51V, R54L, D93E, T94S
B7: 376_B01 (antibody, V domains shown)
VH: B1 VH with S49A, S55G, G59S, G99S, N101T
VL: B1 VL with L33V, L47V, D93N, T94L
B8: 369_G07 (antibody, V domains shown)
VH: B1 VH with D30S, S49A, S55G, G59S, G99S, N101T
VL: B1 VL with L33V, L47V, T94N
B9: 366_A05 (antibody, V domains shown)
VH: B1 VH with D30S, S49A, G99S, N101T
VL: B1 VL with L33V, L47V, R54L, D93N
B10: 370_E07 (antibody, V domains shown)
VH: B1 VH with S49A, G50N, S55G, G99S, N101T
VL: B1 VL with T94N
B11: 365_F07 (antibody, V domains shown)
VH: B1 VH with D30S, G50N, S55G, T58K, G59S, G99S, N101T, H106A
VL: B1 VL with T31S, L33V, L47V, T94L
B12: 374_C11 (antibody, V domains shown)
VH: B1 VH with D30S, S49A, T58K, G99S, N101T
VL: B1 VL with D93E, T94S
B13: 376_F01 (antibody, V domains shown)
VH: B1 VH with D30S, S31D, S49A, S55G, T58K, G59S, H106A
VL: not shown
B14: 375_A06 (antibody, V domains shown)
VH: B1 VH with D30S, S49A, T58K, G99S, N101T
VL: B1 VL with L33V, T52S, R54L, A55Q, D93S
B15: 372_D04 (antibody, V domains shown)
VH: B1 VH with D30S, S49A, G50N, G99S, N101T
VL: B1 VL with R54L, A55H, T94L
B16: 367_G07 (antibody, V domains shown)
VH: B1 VH with S49A, G50N, S55G, G99S, N101T
VL: B1 VL with L33V, T94N
B17: 375_F02 (antibody, V domains shown)
VH: B1 VH with D30S, S49A, G50S, G59S
VL: B1 VL with T31S, T94S
B18: 373_B08 (antibody, V domains shown)
VH: B1 VH with S49A, G50N, T58K, G99S, N101T
VL: B1 VL with L47V, R54L, D93E, T94N
B19: 375_H05 (antibody, V domains shown)
VH: B1 VH with D30S, G50N, S55G, H106A
VL: B1 VL with T31S, L33V
B20: 369_A10 (antibody, V domains shown)
VH: B1 VH with S49A, G99S, N101T
VL: B1 VL with T31S, D93E, T94L
B21: 374_A11 (antibody, V domains shown)
VH: B1 VH with D30S, S31D, S49A, G50N, T58K, G99S, N101T
VL: B1 VL with T31S, L33V, L47V, D93S, T94S
B22: 373_E06 (antibody, V domains shown)
VH: B1 VH with S49A, T58K, G59S, G99S, N101T
VL: B1 VL with T31R, R54L, A55H, T94N
B23: 376_H01 (antibody, V domains shown)
VH: B1 VH with D30S, S31D, S49A, S55G, T58K, H106A
VL: B1 VL with D93S
B24: 375_A12 (antibody, V domains shown)
VH: B1 VH with D30S, T58K, G59S, H106A
VL: B1 VL with T31S, L47V, A51V, D93E
B25: 375_C12 (antibody, V domains shown)
VH: B1 VH with D30S, S49A, G50N, S55G, G99S, N101T
VL: B1 VL with T94L
B26: 374_D10 (antibody, V domains shown)
VH: B1 VH with D30S, S33G, N35H, S49A, G50S, S55G, G59S
VL: B1 VL with L33V, T94N
B27: 375_E10 (antibody, V domains shown)
VH: B1 VH with D30S, S55G, G59S, H106A
VL: B1 VL with T31S, L47V, T94N
B28: 373_B11 (antibody, V domains shown)
VH: B1 VH with D30S, S49A, G50N, T58K, G99S, N101T
VL: B1 VL with T31S, T94N
B29: 365_D05 (antibody, V domains shown)
VH: B1 VH with S49A, S55G, G59S, G99S, N101T
VL: B1 VL with L33V, D93N, T94S
B30: 375_G05 (antibody, V domains shown)
VH: B1 VH with D30S, S49A, S55G, G59S, H106A
VL: B1 VL with L30V, T31S, A51V, T94S
B31: 374_G08 (antibody, V domains shown)
VH: B1 VH with S55G, G59S, H106A
VL: B1 VL with L33V, L47V, T94S
B32: 375_A07 (antibody, V domains shown)
VH: B1 VH with G50S
VL: B1 VL
B33: 375_G07 (antibody, V domains shown)
VH: B1 VH with S49A, G59S, G99S, N101T
VL: B1 VL with T31S, L47V, R54L, T94L
B34: 376_C08 (antibody, V domains shown)
VH: B1 VH with S49A
VL: not shown
B35: 373_G05 (antibody, V domains shown)
VH: B1 VH with D30S, S49A, S55G, G59S, G99S, N101T
VL: B1 VL with T31S, R54L, D93E, T94L
B36: 367_A01 (antibody, V domains shown)
VH: B1 VH with D30S, S49A, G50S, S55G, G99S, N101T
VL: B1 VL with T94L
B37: 373_E02 (antibody, V domains shown)
VH: B1 VH with S33G, N35H, S55G, T58K, G99S, N101T
VL: not shown

Assays:
[1] = molecular target: ACVR2A on primary human myotubes (human, UniProt P27037 20-513); experiment: cell-based or functional assay
[2] = molecular target: Human ACVR2A (on cells) (human, UniProt P27037 20-513); experiment: cell-based or functional assay
Sequence of Human ACVR2A (on cells) (P27037 20-513): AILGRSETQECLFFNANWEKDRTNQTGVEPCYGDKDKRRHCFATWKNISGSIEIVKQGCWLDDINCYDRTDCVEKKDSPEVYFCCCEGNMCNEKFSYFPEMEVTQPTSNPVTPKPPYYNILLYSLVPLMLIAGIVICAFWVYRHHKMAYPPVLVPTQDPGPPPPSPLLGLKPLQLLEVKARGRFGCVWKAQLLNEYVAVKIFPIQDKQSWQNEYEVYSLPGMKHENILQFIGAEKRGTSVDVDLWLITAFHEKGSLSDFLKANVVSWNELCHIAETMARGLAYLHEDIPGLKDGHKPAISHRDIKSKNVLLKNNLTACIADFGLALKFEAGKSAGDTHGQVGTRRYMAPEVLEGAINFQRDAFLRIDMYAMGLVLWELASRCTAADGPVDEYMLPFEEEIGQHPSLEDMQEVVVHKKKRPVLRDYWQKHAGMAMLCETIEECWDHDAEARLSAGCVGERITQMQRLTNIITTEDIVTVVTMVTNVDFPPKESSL

Sequence of ACVR2A on primary human myotubes (P27037 20-513): as above

Row | Binder | Phospho-SMAD3 Human Skeletal Muscle GDF8 [1] | Phospho-SMAD3 Human Skeletal Muscle GDF8 (AlphaLisa, primary human myotubes) [2]
1 | B1 | 0.0177 | –
2 | B2 | – | 0.0042
3 | B3 | – | 0.0124
4 | B4 | 0.0544 | –
5 | B5 | – | 0.0043
6 | B6 | 0.0042 | –
7 | B7 | – | 0.0086
8 | B8 | – | 0.012
9 | B9 | – | 0.0244
10 | B10 | – | 0.0046
11 | B11 | – | 0.011
12 | B12 | – | 0.0266
13 | B13 | 0.595 | –
14 | B14 | – | 0.0318
15 | B15 | – | 0.0114
16 | B16 | – | 0.0068
17 | B17 | 0.0076 | –
18 | B18 | – | 0.0102
19 | B19 | 0.0346 | –

Row | Binder | Phospho-SMAD3 Human Skeletal Muscle GDF8 [1] | Phospho-SMAD3 Human Skeletal Muscle GDF8 (AlphaLisa, primary human myotubes) [2]
20 | B20 | – | 0.0076
21 | B21 | – | 0.0086
22 | B22 | – | 0.0005
23 | B23 | 0.0562 | –
24 | B24 | 0.0469 | –
25 | B25 | – | 0.0063
26 | B26 | 0.126 | –
27 | B27 | 0.0091 | –
28 | B28 | – | 0.0008
29 | B29 | – | 0.0209
30 | B30 | 0.0052 | –
31 | B31 | 0.034 | –
32 | B32 | 0.014 | –
33 | B33 | – | 0.0112
34 | B34 | 0.0605 | –
35 | B35 | – | 0.0059
36 | B36 | – | 0.0065
37 | B37 | – | 0.0049
